Laboratory results as given in the DeepSol protein solubility set.

assay: soluble on expression in E. coli; label from the status in PepcDB or PDB records

Row | Sequence | soluble on expression in E. coli
1 | GHMNVAKREFIRGMMAHYRASLPPPEHSVVIHELQKRVLDIGMLAVNKAHVELFGSHVSGFCTPHSDADISLTYRNFSPWLQGMERVDEQNNKRMTRFGKEASAMGMEDVRYIRARIPVVQFTDGVTGIHCDVSIGNIGGVENSKILCAIRQVFPDFYGAYIHLVKAWGKAREVIAPERSTFNSFTVTTMALMVLQELGLLPVFSKPTGEFGELTVADAEMLLQEFKLPPIYDSLHDDDEKLGEAVFFCLQRFAEYYAKYDFSAGTVSLIHPRRHRTVYERVVRRHLELLGSRKRLEWEKHIAEHKEDGPLDENDFSASMQNETTQRPSNSPYVVEDFVNYVNCGRRVQASRVRHIQQEFNRLREMLIDKESELKFDEVFRESDTVP | soluble
2 | MGHHHHHHSHMSLSSSACPLLLTLRDHLLQLEQQLCFSLFKIFWQMLVEKLDVYIYQEIILANHFNEGGAAQLQFDMTRNLFPLFSHYCKRPENYFKHIKEACIVLNLNVGSALLLKDVLQSASGQLPATAALNEVGIYKLAQQDVEILLNLRTNWPNTGK | not soluble
3 | MSLGITDSGLSEKQVEKLVRASRPNNPSPDIWARAIKESLEELGQPVDKEHVSAVCAVISQVSAFSISPKNSRMASILRKKIEAAESNEVLRLLIETRLDQTASNGRTFRENIDSIQSELDFEKWYDEFTSASVTKPILLVLKKDASDLITTAGSMQVSVKFAEEYPKKPRNAGGGSVRDMLYTCKGGVFYGTAYLLDYKHNYDDWKYVFADFNAGHYTSRNAGFQKMLGRLTHRMVDTDGDLLSYENGNATPSVTYVTFINFLKDKGIGFDEKKVMKDFQQEKSYDFEETWSYKTLSELYKKKYGHPIYAVLPDIPLNSPKFVSKNLSTKWFAERVKSRYNHCMRTSIEGHHHHHH | soluble
4 | MGSDKIHHHHHHVGTGDGNAIWPIRSVHLIGAIYPHILEELMLNTVILYSTVDGQTLAICQKIKQILVEQGEQVSVVNLAEVEADDLASVDKVVIGASIRYGKHRPELFKFVEQHKVLLDTKHNSFFSVNVVARKPEKNTPETNPYMQKFSNLSAWKPQLLGVFAGKIDYPRYRFFDKFMIRFIMWMTKGPTDTQGTFEFTDWGKVDDYAKQIAAQK | not soluble
5 | GDIVAVHPIRRGTAEAIEVVAHGDKKTSAIIGRRISGIKWPEGCHIAAVVRAGTGETIMGHHTETVIQDGDHIIFFVSRRRILNELEKLIQVKMGFFG | not soluble
6 | MNKPVAIFLMGPTASGKTDLAIALRKQLPVEVISVDSALIYKEMDIGTAKPTAAELAQAPHRLIDILDPKESYSAMHFHADALHAMADITASGRIPLLVGGTMLYYKALLEGLSPLPSANEHIRTEIEAHANQYGWASLHQQLTQIDPLAASRINANDSQRINRALEVFYLTGKNLTELTAQQGECLPYQVLQFAIAPQERAVLHQRIEQRFHKMMELGFLTEVEKLYARGDLHPDLPAIRCVGYRQMWQHLAGEISLDEAIYKGICATRQLAKRQLTWLRGWRSEITWLDSLDPTSSQEKMIQNLEQNFIKLLEHHHHHH | soluble
7 | MGHHHHHHSHKKLGLKVGIEIHQQLDTKHKLFCLCPTLTREVEESNFEFFRYLRLKRSEIGEEDRAAKEEVERSRRFIYKYYDTTCLVEADEEPPREVNREALLIAIQVAKMLNMEVVDEVHVMRKIVIDGSNTTGFQRTALVAFGGFLEVDGKRVGVATLCLEEEACRKVEDGEGYAVYSLDRLGIPLVEIGTEPDIDSPEMAKKVAARLGMILRSTGKVKRGLGTIRQDVNISIRDGARVEIKGVQELDILDKIVEYEVLRQVNLLKIR | soluble
8 | MAGDPMKQFAQTYYLLQFIICLICLSISCGEGGNDNYSETNDERNKEPEITVSPITNLEAKSTQIANQLLITWQNPNTPNLLGVELSYLQKNGGTHNGKQIIQGAAGKTGNYTLQLPQYGTYEISAIAIDNYGHRSSAVTVIATPAETTVPFSWATLADSCTYVLIEQFMNKSKGTFWSTPKDMSDESTYIYWQQAHAMDVVIYSYKRIKDTNKQLAATYRTYFERWYANHANNYHRNPSDETGFLNDFTDDMCWICLTLIHLSEATGDEKFAQTAKIVYDKYIITRAWTDDKGTGLPWNTTQNDRNACTNSPGCLVAAKLYQRYEDGNYLSDAKKLYEYVVNNSYNADGRVEEPPLTYTQGTFGEACRQLYHITQESKYMDKAKQVINYAATSDRCLRNGILRDEGSSMDQSIFKSVYIPYAVNLALDEASSSIGKHLITFLKNNAETLRMNLNHAAYPAMYCNYWWGEMWKSSEPASMGAQVSGASLMEGIARLEAAALEHHHHHH | not soluble
9 | MSLLNIIRLLAESLPRISDGNENTDVWVNDMKFKMAYSFLNDDIDVIERELEQTVRSDYPLLSEAGLHLLQAGGKRIRPVFVLLSGMFGDYDINKIKYVAVTLEMIHMASLVHDDVIDDAELRRGKPTIKAKWDNRIAMYTGDYMLAGSLEMMTRINEPKAHRILSQTIVEVCLGEIEQIKDKYNMEQNLRTYLRRIKRKTALLIAVSCQLGAIASGADEKIHKALYWFGYYVGMSYQIIDDILDFTSTEEELGKPVGGDLLQGNVTLPVLYALKNPALKNQLKLINSETTQEQLEPIIEEIKKTDAIEASMAVSEMYLQKAFQKLNTLPRGRARSSLAAIAKYIGKRKFEGHHHHHH | not soluble
10 | MTDIQDVISPKLAVAIANPIFPAVDSLLRSGRHISTEHLDNHAFLMDFQNELDGFYRRYNVELIRAPEGFFYLRPKATTLIARSVLSELEMLVGKVLCYLYLSPERLAQQGIFSTQEVYDELLNLADEGKLLKAVNQRSSGSDLDKQKLAEKVRAAIGRLRRLGMIQTVGEQNSGKFTISESVFRFGAEVRSGDDPLESQARLIRDGEAATPDSLALEKQAQLMENDTKSADEIDEEFDGEQELEHHHHHH | soluble
11 | MGSDKIHHHHHHMRVAIIGMGTAGVSVLRELVKHPKFNQLDIDLYDDKVNMGQGVPFQNDSSELLINMPSKKMSLNLDDETEFWKWYKQQTDFNFDEPAYLPRFVFGHYMKSYLSMFTKKYPNISTNYNKVQEIYTNSNIDETNLTYYICTTNSEQSWQAYDYVFLTCGTFAYHDPYNLKGKKGYIATPYPTYNTLDEVNELDDIAIIGTGLASLDVVRYVAAHHPKLPITMTSRSAHLPSVRGTMIDVTFKYLTKDKLNDIKKHHFGNAPLDTLVSLFLKECAEYDIDFKKLVYRRTGNHIADLKYDLARPTEMGIFQSMIEHLKENLNWIWNSLSIEDQHQFNQKYSKMIQLNSNPMPPRTAELIIELIENKSLILKKDLEDVKHDGKLYYFSYKNQESVDIYNVVINATGAKSHLNELDQDDQLIKNLENRQIVQAHPMGGIQIIPETNQVISPRFGTLTNMIAIGQMTNGVNKLRNGVKMIVEQVAHKVSQLYDALESNEQQQRSDNQ | not soluble
12 | MDQNPNYNFGYGQAYGSGTDHTSDSTNNYNWASQWSQPESAASLATHTFPQYVSQQQQQQQQQAQQQAQNTYAAMNPISTFMQQQQRAQTFPQKKYGQQGGAPKPSAIRNNNFGAFGGGHALSQEWVQPMSQNQMGGPQGNRFFNNQKGGPFNQNKPNWRQNKPKGPAAPKKFDSTGKSPAMLLHELFKDVSEEYTEVEGVPKKYCCTLKVNGRTFQMESVNKKAAKQKCSELVVRDLRPDVHVTPFEEGVAAKAAAPVKKEIDAASGNGQNNKRNLLQADAISNQPTPKKVSAVKKAKLQLTPVESALSLLDLMQKIIAESAEKYSPVFEASEVPKDPEIPEVEVKKEEVDTNGENVANEKKSGWRKNETMHNVTLKFVEQNKQYTKMGPSRGVLKDMVIREALRDLFNVSHADITTVARRHASNRLGHDTTILQCLNTICSILNCTLTIECEPAEDRPLGIGRAYFMAKCTIIDHNENDLKFEVKSSSLASKAMAKDWVAQETLKNYFAIDPSSCVKTDAVSSQGPCALLHAMLNKQTKQKCKIAYEFKDNVPPVAGQATTTFYCECVIDETDRYIGVGRSKKLAKSEAAMQALKKLFKIDYDPAGNYPLALTSRAMTESKVSPLCRHIAEFCKREYHQMTEYYQIPPSNLFAAFLLVNAQEEKRVLAMGSSIQYIVEPDTLSGANGTSLLHLDAIILARRAMLKAFIHELSTVDSECSIFEKKEEGKAALKPNLRLVLYSNYSPPCIHAVDDAATKKLSYVTPTNLTCVPDDVLTYEQIKETKSLRVHCTADKLFKWNTLGIQGALLSNVLHPIFIDNIFFGSEAPVSDESLSYALQGRLGPNENEREIIVESMPVQMRMHMGISHLWHRGVDSVETLDYNTGRTSKGSPSRVCKAEIFEAYRKLNGVDQAVVNYAKAKEMASEYQYEKKVFYEKLEAAGLGKWQTKPAELVDSFTLAAFD | not soluble
13 | MSLTTIRVFDTTLRDGEQMPGVSLPLEYKIRIAKQLDKLGVDVIEAGFPSATKGEFESVKEISSLSLNAEICGLARIVKEDIDAAINANVDMVHIFVPTSRIQIEHTVKMSKEEIIEKSVECVEYIKSHGVKCMFSAMDATRTEVEYLKQIFKAVENAKVDIVNVPDTVGVATPFKFYELIKQLREHLKVPIDVHCHNDFGLAVANTYAAVMAGANEVQVTVNGIGERAGNADLAQVVMILHAIEGIKTNIKTEHLFETSKLVERLTGVKMPPNHPIVGENAFSHESGIHAHGVLKEYSEGHHHHHH | soluble
14 | MRGSHHHHHHGMASMAVSESQLKKMVSKYKYRDLTVRETVNVITLYKDLKPVLDSYVFNDGSSRELMNLTGTIPVPYRGNTYNIPICLWLLDTYPYNPPICFVKPTSSMTIKTGKHVDANGKIYLPYLHEWKHPQSDLLGLIQVMIVVFGDEPPVFSRP | soluble
15 | MGSDKIHHHHHHMPVTHLAGALCHPTDCTLRASNSQHIATRFNEHSSVSHTRDLDRVQVAERWSRIKECNYVPVKVANTRADLGESLVWDERSGVLYFVDISGGRINGLTPDGEVDCLYESAARIGALALTDRGNLIFTEDASVAIFDVPTRKVSQHSASVHPRSTYRFNDGACDPQGRFVTGLMDEALSDNTGALFRFDWQLSDQVIHDDMGLPTGLAWSHDGHTVYFVDSAARAIYRAEYLIEGRLGAVTLFAETPAELGRPDGLALDREGGLWVCQYHGSCLLRYDRHGYLTDQVLMPVPCPTSCCFGGPGMNTLYISTARYDMTPEDLHHYPDAGDLYAIRPETGGVARHSFKE | not soluble
16 | MATQKEKPSSNSFKWFSTKTLKLNLSFQNRRRSPKSNSSSTLNSPRSNSDDNNNIKSHQASKEELRQVFSHFDSDGDGKISAFELRHYFGSVGEYISHEAAQEAINEVDTDADGSLGFEDFVGLMTRRDLYGDGEVDGDGELKTAFEMFEVEKGSGCITPKGLQKMLVKLGESRTYGECEAMIKFYDIDGNGILDFHEFRQMMTV | soluble
17 | MNMALISLAIDYKKSPIEVRSEFALSGLDVSMLYRSILAIDNVVHAVILSTCNRTEVYLEISDLRVVDDILVWWQGYVRNPNYKIKDYFKLRQGTEVIMHLMKLACGLESMVLGEPQILGQVKDSYTLSKKNHAIGKELDRVFQKVFATAKRVRSETRIGHCPVSVAFSAITLAKRQLDNISSKNVLIIGAGQTGELLFRHVTALAPKQIMLANRTIEKAQKITSAFRNASAHYLSELPQLIKKADIIIAAVNVLEYIVTCKYVGDKPRVFIDISIPQALDPKLGELEQNVYYCVDDINAVIEDNKDKRKYESSKAQKIIVKSLEEYLEKEKAIISNSAIKELFQKADGLVDLSLEKSLAKIRNGKDAEEIIKRFAYEIKKKVLHYPVVGMKEASKQGRSDCLVCMKRMFGLNVEK | not soluble
